Laboratory results reported in publication PMC3827234.

Biological target: hamster integrin αv subunit, endogenous in CHO cells (Chinese hamster (endogenous in CHO))
Assay: flow cytometry on cells; CHO cells transiently transfected with the β3 plasmid alone, harvested after 48 h; the chimeric complex of human β3 and hamster αv on the cell surface was stained with FITC anti-αvβ3 (LM609; Figure 2C) or with the monoclonal antibody to β3 (Figure 2D); read-out is the percentage of positive cells

percent of the level of the WTβ3-hamster αv complex (LM609 staining): 78%
Substance: integrin β3 subunit with the Pro189Ser substitution (P163S in the mature protein) (from UniProt P05106 27-788) (receptor)
